Measurements from patent publication US20260242478A1 (published 2026).
Where no end group is shown, it is not given here.

B1: Phage-2785 (peptide)
peptide: DVKWCTPPWMCLSD
B2: Phage-2786 (peptide)
peptide: EENWCIPVWMCERL
B3: Phage-2792 (peptide)
peptide: TQHWCTPIWMCEGL
B4: Phage-2787 (peptide)
peptide: LWKSCTPEWMCAEW
modifications: cysteine pairing not given here; also: fused to pIII, displayed on bacteriophage
B5: Phage-2801 (peptide)
peptide: SDNWCKPEWMCVGH
B6: Phage-2788 (peptide)
peptide: SVKWCTPSWMCTEW
B7: Phage-2802 (peptide)
peptide: TPKWCTPAWMCVVS
B8: Phage-2795 (peptide)
peptide: FEKWCTPQWMCNSM
B9: Phage-2797 (peptide)
peptide: ERIWCTPKWMCETF
B10: Phage-2790 (peptide)
peptide: VMKWCTPSWMCAEA
modifications: cysteine pairing not given here; also: fused to pIII, displayed on bacteriophage
B11: Phage-2791 (peptide)
peptide: WEKWCTPSWMCSGI
B12: Phage-2799 (peptide)
peptide: ESKWCVPTWMCAEN
modifications: cysteine pairing not given here; also: fused to pIII, displayed on bacteriophage
B13: Phage-2798 (peptide)
peptide: HFKWCIPPWMCLEI
B14: Phage-2793 (peptide)
peptide: VTNWCTPPWMCEML
B15: Phage-2794 (peptide)
peptide: TEKWCIPQWMCVRT
B16: Phage-2796 (peptide)
peptide: LNNWCTPAWMCVGY
B17: Phage-2800 (peptide)
peptide: DYKWCTPPWMCDSR
B18: Phage-2789 (peptide)
peptide: VGKWCTPEWMCSGF
B19: Phage-2824 (Peptide-180 library clone) (peptide)
peptide: GLPWCVPQWMCVVS
B20: Phage-2819 (Peptide-180 library clone) (peptide)
peptide: IDKWCKPVWMCADN
modifications: cysteine pairing not given here; also: fused to pIII, displayed on bacteriophage
B21: Phage-2820 (Peptide-180 library clone) (peptide)
peptide: FEKWCTPLWMCADS
modifications: cysteine pairing not given here; also: fused to pIII, displayed on bacteriophage
B22: Phage-2821 (Peptide-180 library clone) (peptide)
peptide: WDNWCTPSWMCSTA
B23: Phage-2823 (Peptide-180 library clone) (peptide)
peptide: GVNWCVPPWMCLND
B24: Phage-2822 (Peptide-180 library clone) (peptide)
peptide: DIRWCTPPWMCMHL
B25: Phage-2804 (peptide)
peptide: EGKWCTPTWMCQGF
B26: Phage-2817 (peptide)
peptide: EAKWCTPPWMCSLV
B27: Phage-2814 (peptide)
peptide: PMKWCTPPWMCSYS
B28: Phage-2815 (peptide)
peptide: IDKWCVPAWMCSPA
B29: Phage-2818 (peptide)
peptide: SVHMCKPPWMCQSM
B30: Phage-2813 (peptide)
peptide: FSKLCTPPWMCSVS
B31: Phage-2809 (peptide)
peptide: VTKLCIPEWMCVIQ
B32: Phage-2807 (peptide)
peptide: WENWCIPQWMCGTA
B33: Phage-2805 (peptide)
peptide: MMHWCTPPWMCEFS
B34: Phage-2806 (peptide)
peptide: GATWCTPTWMCTGF
B35: Phage-2816 (peptide)
peptide: GDKWCKPSWMCDFF
B36: Phage-2803 (peptide)
peptide: VKHVCMPEWMCYWS
modifications: cysteine pairing not given here; also: fused to pIII, displayed on bacteriophage
B37: Phage-2810 (peptide)
peptide: MDIWCKPRWMCEEY
B38: Phage-2812 (peptide)
peptide: VGPWCIPDWMCDVV
B39: Phage-2811 (peptide)
peptide: VPKWCTPSWMCEFT
B40: Phage-2808 (peptide)
peptide: MEKWCTPRWMCVGM

Target: T1, PSMA Fab
T1 construct: Biotinylated PSMA Fab captured on neutravidin coated plates in the phage ELISA; also called Anti-PSMA Fab; 006 PSMA Fab
Experiment: clonal phage ELISA on captured PSMA Fab pre-incubated with PSMA antigen as competitor, anti-M13 HRP detection;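 further: crude clonal phage supernatants tested by ELISA, wells first treated with blocking buffer plus PSMA antigen, bound phage read out via HRP-linked anti-M13 antibody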
Experimental: (§1) Clonal phage were harvested as crude supernatants and screened via standard ELISAs. […] Prior to the addition of clonal phage. wells were incubated with blocking buffer and PSMA antigen or blocking buffer alone. Without washing or aspirating, clonal phage supernatants were then added to the wells and incubated for a short time. Wells were then washed followed by detection of bound phage using a horse radish conjugated anti-M13 antibody.

Binder | phage binding ELISA signal (Anti-PSMA Fab, PSMA antigen present)
B1 | 0.1
B2 | 0.0721

Target: T1, PSMA Fab
Experiment: clonal phage ELISA on biotinylated PSMA Fab captured on neutravidin plates, anti-M13 HRP detection;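 further: crude clonal phage supernatants tested, before phage were added, wells were pretreated with PSMA antigen in blocking buffer or with blocking buffer only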
Experimental: as §1

Binder | Phage binding ELISA signal, Anti-PSMA Fab
B1 | 0.613
B2 | 0.607

Target: T2, PSMA Fab (biotinylated (site not stated))
T2 construct: also called Anti-PSMA Fab; 006 PSMA Fab
Experiment: as above

Binder | Phage binding ELISA signal, Anti-PSMA Fab
B3 | 0.597
B4 | 0.606
B5 | 0.578
B6 | 0.601
B7 | 0.575
B8 | 0.59
B9 | 0.589
B10 | 0.599
B11 | 0.598
B12 | 0.583
B13 | 0.588
B14 | 0.596
B15 | 0.592
B16 | 0.589
B17 | 0.58
B18 | 0.6

Target: T3, PSMA Fab (006 PSMA Fab)
T3 construct: In the phage ELISA the PSMA Fab was biotinylated and captured on neutravidin coated plates; also called Anti-PSMA Fab; anti-PSMA Fab
Experiment: phage ELISA; biotinylated PSMA Fab on neutravidin plate, clonal phage supernatant, anti-M13 HRP detection;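 further: wells preincubated with PSMA antigen in blocking buffer or with blocking buffer only before clonal phage were added for a short incubation, then bound phage detected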
Experimental: as §1

Binder | Phage binding ELISA signal, Anti-PSMA Fab
B19 | 0.482
B20 | 0.5
B21 | 0.5
B22 | 0.488
B23 | 0.484
B24 | 0.486

Target: T3, PSMA Fab (006 PSMA Fab)
Experiment: phage ELISA; PSMA Fab on plate pre-incubated with PSMA antigen as competitor, anti-M13 HRP detection;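 further: crude clonal phage supernatants added to Fab-coated wells still holding PSMA antigen in blocking buffer, with bound phage as read-out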
Experimental: as §1

Binder | phage binding ELISA signal (Anti-PSMA Fab, PSMA antigen present)
B19 | 0.0721
B20 | 0.0659
B21 | 0.0612
B22 | 0.0814
B23 | 0.0879
B24 | 0.258

Target: T4, PSMA Fab (006 PSMA Fab) (biotinylated for capture on neutravidin plates (site not stated))
T4 construct: also called Anti-PSMA Fab
Experiment: clonal phage ELISA on biotinylated PSMA Fab captured on neutravidin plates, anti-M13-HRP detection;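 further: crude clonal phage supernatants added to wells preincubated with PSMA antigen or with blocking buffer only (no wash between), briefly incubated, then washed before detecting bound phage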

Binder | Phage binding ELISA signal, Anti-PSMA Fab
B25 | 0.57
B26 | 0.525
B27 | 0.538
B28 | 0.538
B29 | 0.509
B30 | 0.543
B31 | 0.562
B32 | 0.565
B33 | 0.568
B34 | 0.566
B35 | 0.526
B36 | 0.57
B37 | 0.562
B38 | 0.554
B39 | 0.56
B40 | 0.565

Target: T2, PSMA Fab
Experiment: clonal phage ELISA on captured biotinylated PSMA Fab; competitor: PSMA antigen at saturating concentration
Experimental: as §1

Binder | phage binding ELISA signal (Anti-PSMA Fab, wells pre-incubated with PSMA antigen)
B3 | 0.0819
B4 | 0.0991
B5 | 0.0873
B6 | 0.104
B7 | 0.077
B8 | 0.0699
B9 | 0.0657
B10 | 0.0742
B11 | 0.0859
B12 | 0.0578
B13 | 0.298
B14 | 0.213
B15 | 0.0656
B16 | 0.084
B17 | 0.0697
B18 | 0.0562

Target: T4, PSMA Fab (006 PSMA Fab)
Experiment: clonal phage ELISA on captured PSMA Fab pre-incubated with PSMA antigen as competitor, anti-M13-HRP detection;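 further: wells blocked with buffer plus PSMA antigen before phage addition, with blocking buffer alone as the no-competitor control, bound phage detected after washing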
Experimental: as §1

Binder | Phage binding ELISA signal, Anti-PSMA Fab in presence of PSMA
B25 | 0.0945
B26 | 0.0546
B27 | 0.063
B28 | 0.06
B29 | 0.077
B30 | 0.276
B31 | 0.0595
B32 | 0.141
B33 | 0.0626
B34 | 0.117
B35 | 0.072
B36 | 0.0724
B37 | 0.0676
B38 | 0.0755
B39 | 0.0648
B40 | 0.0734
